The target in this experiment is IdsE of strain BB2000 with amino acids 147-169 (variable region) replaced by the equivalent sequence of IdsE from strain HI4320 (Proteus mirabilis strain BB2000; Proteus mirabilis strain HI4320). As to the kind of experiment: cell-based or functional assay.

Data on one substance can be found in patent US20190201479A1.

Consider “IdsD from Proteus mirabilis strain BB2000 (variable region from BB2000)”, for which the fold reduction in colony expansion of the 1:1 coswarm (donor CCS06 with CCS05-derived recipient producing DVR-BB and EVR-HI) against the monoculture swarm of the recipient came to 3.12 fold; the fold reduction in colony expansion of the 1:1 coswarm (donor CCS06 with CCS05-derived recipient producing DVR-HI and EVR-HI) against the monoculture swarm of the recipient worked out at 3.35 fold.
